Patent publication US20240173398A1 (MAX PLANCK GESELLSCHAFT ZUR F RDERUNG DER WISSENSCHAFTEN E V, published 2024)
Changes are numbered by the printed parent chain.

B1: VHH antibody Re7E02 (VHH)
VHH: QVQLVESGGGLVQAGGSLRLSCAASGFTLDYYAIGWFRQAPGKEREGVSYIRSSDGTTYYADSVKGRFTISRDNAKNTVYLQMNSLKPEDTAVYYCAADEAYYSELGWESPWGWSYWGQGTQVTVSS
B2: VHH antibody Re6B07 (VHH)
VHH: B1 VHH with A14P, Q122R
B3: VHH antibody Re9D02 (VHH)
VHH: QVQLVESGGGLVQAGGSLRLSCAASGRTFSNYAMGWFRQAPGKEREFVAAISWGGDTTYYADSLKGRFTISRDNAKNTVYLQMNSLKPEDTAVYYCAADRGLSYYYDRVTEYDYWGQGTQVTVSS
B4: VHH antibody Re6A11 (VHH)
VHH: QVQLVESGGGLVQAGGSLRLSCAASGRTFSNDALGWFRQAPRKEREFVAAINWNSGTYYADSVKGRFTISRDNAKNTVYLQMNSLKPEDTAVYSCAAASDYGLPREDFLYDYWGQGTLVTVSS
B5: VHH antibody Re9F06 (VHH)
VHH: B4 VHH with L118Q
B6: VHH antibody Re9C07 (VHH)
VHH: QVQLVESGGGLVQAGGSLRLSCAASGRTFSRYAMGWFRQAPGKEREFVAAITWNADTTYYADSVKGRFTISRDNAKNTVYLQMNSLKPEDTAVYYCAAGGNHYYSRSYYSSLEYDHWGQGTQVTVSS
B7: VHH antibody Re9G12 (VHH)
VHH: QVQLVESGGGLVQAGGSLRLSCAASGRTFSSYVMGWFRQAPGKEREFVAHISWSGDSTYYADSVKGRFTIFRDNAKNTAYLQMNSLKPEDTAVYYCAADRGASYYYTWASEYNYWGQGTQVTVSS
B8: VHH antibody Re11H04 (VHH)
VHH: QVQLVESGGGLVQPGGSLRLSCAASGFTLDYYTIAWFRQAPGKEREGVSCISGNDGSTYYADSVKGRFTISRDNAKNTVYLQMNSLKPEDTAVYYCAADRGESYYPFRPSEYHYWGQGTQVTVSS

Biological target: SARS-CoV-2 RBD (correctly folded, co-expressed with fold-promoting VHH in E. coli) (SARS-CoV-2, UniProt P0DTC2 330-527)
Experiment: co-expression in E. coli, co-purification and gel filtration

Binder | binding result
B1 | binds
B2 | binds
B3 | binds
B4 | binds
B5 | binds
B6 | binds
B7 | binds
B8 | binds
